Protein stability index data for 94 variants are collected here from the supplement of paper PMC10567573.

The labels stand for the following.
B1: RHOBTB3 (parent)
chain: STTEGIQLAKELGATYLELHSLDD
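Also: lentivirally expressed fusions sorted by FACS into six bins by GFP to DsRed ratio, PSI derived from sequencing read proportions per bin multiplied by bin number.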

In this series the parent is B1. Put plainly: protein stability index of a GFP-peptide fusion (GPS, HEK-293T) (PSI 1-6); higher = more stable. Particulars: c terminus: a fixed tail appended.
For the variant STTEGIQLAKELGATHLELHSLDD [Y16H], the protein stability index was 4.25.
With STTEGIQLAKELGATVLELHSLDD [Y16V] the figure was 3.59; with STTEGIQLAKELGATWLELHSLDD [Y16W], 2.49.
The result for STTEGIQLAKELGATQLELHSLDD [Y16Q] reads 4.33.
With STTEGIQLAKELGACYLELHSLDD [T15C] the figure was 3.59.
Turning to STTEGIQLAKELGAMYLELHSLDD [T15M], the protein stability index was 3.27.
On to STTEGIQLAKELGAQYLELHSLDD [T15Q], for which the protein stability index was 4.33.
The result for STTEGIQLAKELGAVYLELHSLDD [T15V] reads 2.17; that for STTEGIQDAKELGATYLELHSLDD [L8D], 5.04.
With STTEGIQMAKELGATYLELHSLDD [L8M] the figure was 4.11.
As for STTEGIQEAKELGATYLELHSLDD [L8E], the protein stability index turned out to be 4.97.
With STTEGIQTAKELGATYLELHSLDD [L8T] the figure was 4.97.
With STTEGIQWAKELGATYLELHSLDD [L8W] the figure was 3.86; with STTEGIQLAKELFATYLELHSLDD [G13F], 2.36.
With STTEGIQLAKELSATYLELHSLDD [G13S] the figure was 3.35; with STTEGIQLAKELGATYLELHSLDQ [D24Q], 1.96.
Consider STTEGIQLAKELGATYLELHSLDP [D24P], for which the protein stability index worked out at 3.16.
With STTEGIQLAKELGATYLELHSLDW [D24W] the figure was 2.09.
With STTEGIQLAKELGATYLELHSSDD [L22S] the figure was 4.47.
With STTEGIQLAKELGATYLELHSADD [L22A] the figure was 4.99; with STTEGIQLAKELGATYLELHSFDD [L22F], 3.47; with STTEGIQLAKELGATYLELHSEDD [L22E], 5.93.
For the variant STTEGIQLAKELGATYLELHSKDD [L22K], the protein stability index was determined as 4.68.
With STTEGIQLAKELGATYLELHSIDD [L22I] the figure was 3.7.
With STTEGIQLAKELGATYLELHSNDD [L22N] the figure was 4.68; with STTEGIQLAKELGATYLEDHSLDD [L19D], 5.77; with STTEGIQLAKELGATYLEKHSLDD [L19K], 5.37.
With STTEGIQLAKELGATYLEMHSLDD [L19M] the figure was 4.38; with STTEGIQLAKELGATYLENHSLDD [L19N], 5.
Regarding STTEGIQLAKELGATYLESHSLDD [L19S], the protein stability index was 5.01.
The result for STTEGIQLAKELGATYLEYHSLDD [L19Y] reads 4.82; that for STTEFIQLAKELGATYLELHSLDD [G5F], 2.25; that for STTEKIQLAKELGATYLELHSLDD [G5K], 3.73.
With STTEPIQLAKELGATYLELHSLDD [G5P] the figure was 4.09; with STTEMIQLAKELGATYLELHSLDD [G5M], 2.15.
With STTETIQLAKELGATYLELHSLDD [G5T] the figure was 4.16.
In the case of STTEGIQLAKELGATYHELHSLDD [L17H], the protein stability index turned out to be 4.8.
With STTEGIQLAKELGATYIELHSLDD [L17I] the figure was 2.9; with STTEGIQLAKELGATYCELHSLDD [L17C], 4.14; with STTEGIQLAKELGATYGELHSLDD [L17G], 5.66.
With STTEGIQLAKELGATYEELHSLDD [L17E] the figure was 4.73; with STTEGIQLAKELGATYRELHSLDD [L17R], 3.94.
With STTEGIQLAKEAGATYLELHSLDD [L12A] the figure was 5; with STTEGIQLAKEHGATYLELHSLDD [L12H], 4.78; with STTEGIQLAKEDGATYLELHSLDD [L12D], 5.62.
As to STQEGIQLAKELGATYLELHSLDD [T3Q], the protein stability index amounted to 2.84.
For STLEGIQLAKELGATYLELHSLDD [T3L], the protein stability index turned out to be 2.37.
The result for STMEGIQLAKELGATYLELHSLDD [T3M] reads 2.31; that for STYEGIQLAKELGATYLELHSLDD [T3Y], 2.83.
With STHEGIQLAKELGATYLELHSLDD [T3H] the figure was 2.49.
With STEEGIQLAKELGATYLELHSLDD [T3E] the figure was 4.19; with STTEGINLAKELGATYLELHSLDD [Q7N], 3.24.
STTEGIYLAKELGATYLELHSLDD [Q7Y]: the protein stability index is 3.52.
The result for STTEGIQLAKELGTTYLELHSLDD [A14T] reads 4.18.
The result for STTEGIQLAKELGKTYLELHSLDD [A14K] reads 3.01; that for STTEGIQLAKELGNTYLELHSLDD [A14N], 3.59; that for STTEGIQLAKELGLTYLELHSLDD [A14L], 3.15.
The result for STTEGIQLAKDLGATYLELHSLDD [E11D] reads 4.01; that for STTEGIQLAKGLGATYLELHSLDD [E11G], 3.86; that for STTEGTQLAKELGATYLELHSLDD [I6T], 1.68.
As for STTEGFQLAKELGATYLELHSLDD [I6F], the protein stability index stood at 2.59.
With STTEGNQLAKELGATYLELHSLDD [I6N] the figure was 4.39.
With STTEGQQLAKELGATYLELHSLDD [I6Q] the figure was 4.54.
On to STTEGWQLAKELGATYLELHSLDD [I6W], for which the protein stability index is 2.7.
The result for WTTEGIQLAKELGATYLELHSLDD [S1W] reads 2.74.
The result for NTTEGIQLAKELGATYLELHSLDD [S1N] reads 3.19; that for KTTEGIQLAKELGATYLELHSLDD [S1K], 4.39; that for STTEGIQLAKELGATYLTLHSLDD [E18T], 3.71.
With STTEGIQLAKELGATYLSLHSLDD [E18S] the figure was 3.86; with STTEGIQLAKELGATYLNLHSLDD [E18N], 4.02.
Consider STTEGIQLAKELGATYLRLHSLDD [E18R], for which the protein stability index is 2.96.
With STTEGIQLAKELGATYLKLHSLDD [E18K] the figure was 3.2; with STTEGIQLDKELGATYLELHSLDD [A9D], 4.64.
The result for STTEGIQLNKELGATYLELHSLDD [A9N] reads 4.06; that for STTEGIQLIKELGATYLELHSLDD [A9I], 2.63.
As for STTEGIQLAKELGATYLELFSLDD [H20F], the protein stability index was determined as 2.75.
The result for STTEGIQLAKELGATYLELVSLDD [H20V] reads 1.65; that for STTEGIQLAKELGATYLELESLDD [H20E], 3.45.
The result for STTEGIQLAKELGATYLELLSLDD [H20L] reads 1.41; that for STTEGIQLAKELGATYLELHWLDD [S21W], 1.03; that for STTEGIQLAKELGATYLELHPLDD [S21P], 4.06.
With STTEGIQLAQELGATYLELHSLDD [K10Q] the figure was 3.57.
For the variant STTEGIQLATELGATYLELHSLDD [K10T], the protein stability index came out at 1.84.
The result for STTEGIQLAHELGATYLELHSLDD [K10H] reads 3.15; that for STTEGIQLAAELGATYLELHSLDD [K10A], 2.73.
The result for STTEGIQLANELGATYLELHSLDD [K10N] reads 2.84; that for STTEGIQLAGELGATYLELHSLDD [K10G], 1.71; that for SPTEGIQLAKELGATYLELHSLDD [T2P], 4.02.
The result for SSTEGIQLAKELGATYLELHSLDD [T2S] reads 3.71; that for SRTEGIQLAKELGATYLELHSLDD [T2R], 3.5.
On to STTEGIQLAKELGATYLELHSLLD [D23L], for which the protein stability index was 2.21.
As for STTEGIQLAKELGATYLELHSLFD [D23F], the protein stability index is 1.71.
The result for STTEGIQLAKELGATYLELHSLKD [D23K] reads 3.14; that for STTEGIQLAKELGATYLELHSLHD [D23H], 3.71.
